From patent publication US7169889B1, “Insulin prodrugs hydrolyzable in vivo to yield peglylated insulin” (priority 1999, dated 2007)
Like-named read-outs stand apart in the source and are kept apart here.

Columns and labels:
[1] = tested on: male CF-1 mice; settings: bovine insulin standard; assumed potency used for calculations; cited from earlier work
[2] = tested on: pancreatectomized dogs; experiment: Oral activity in pancreatectomized diabetic dogs (plasma glucose and insulin); assay type: in vivo; settings: for Dmax: microemulsion, N = 2
Method: Two dogs were used for each compound. Compounds are formulated in water in oil microemulsion and evaluated at a dose of 1-2 mg/kg. Twenty milliliters of the formulation was administered orally to each dog and the formulations were chased with 20 ml of water. Plasma glucose and insulin levels were monitored at different time intervals.

[3] = tested on: male CF-1 mice; experiment: Mouse blood glucose assay (potency evaluation); assay type: in vivo; settings: for Potency: subcutaneous injection, blood glucose 30 minutes post-dose, calculated relative to bovine insulin standard curve
Method: Six paired dose groups of 5 male CF-1 mice (˜25 g unfasted) received subcutaneous injections of either bovine insulin or modified insulin. Pre- and post-experimental baselines were established with two vehicle groups. An additional 25 μg/kg insulin dose group served as the internal control. Mice were terminally bled 30 minutes post-dose and blood glucose was measured with a glucometer (ONE TOUCH®). The biological potency of the modified insulin was then calculated relative to a bovine insulin standard curve.

Bovine insulin: bovine insulin standard, assumed potency 27.5 IU/mg
Potency [1]: 27.5 IU/mg

Galactosamine-PEG14-insulin conjugate
Dmax ([2]; oral, dose 2 mg/kg): 52%

Insulin PEG3 Methyl Ether: insulin mono-conjugated with methyl triethylene glycol
in vivo biological activity (potency assay), in words ([3]; mouse blood glucose assay, Table 2): best result
Potency [3]: 43.6 IU/mg

Insulin PEG9 Hexanoate: insulin mono-conjugated with hydrolyzable PEG9 hexanoate ester oligomer
Potency [3]: 21.3 IU/mg

Insulin PEG9 Oleate: insulin mono-conjugated with hydrolyzable PEG9 oleate ester oligomer
Potency [3]: 19.0 IU/mg

Insulin PEG9 Stearate: insulin mono-conjugated with hydrolyzable PEG9 stearate ester oligomer
Potency [3]: 15.3 IU/mg

Insulin PEG10 Oleyl Ether: nonhydrolyzable insulin mono-conjugate with PEG10 oleyl ether oligomer
Potency [3]: 0.0 IU/mg

PEG3-insulin: methyl triethylene glycol insulin conjugates formulated in microemulsion
Cmax ([2]; dog, in vivo, po, 2 mg/kg): 181 μU/ml
glucose reduction, in words ([2]; oral, formulated in microemulsion, pancreatectomized dogs): good glucose reduction
Dmax ([2]; oral, dose 2 mg/kg): 62%

PEG3-oleate-insulin conjugate: insulin conjugated with hydrolyzable triethylene glycol oleate oligomer, in microemulsion
Dmax ([2]; oral, dose 1 mg/kg): 49%
